Measurements reported in the supplement of paper PMC7125110.
± gives the standard error. Fewer inactive variants are shown than the library holds.

B1: glmS ribozyme (parent)
chain: AUAAAAGCGCCAGAACUACAGAAAUGUAGUUGACGAGGAGGAGGUUUAUCGAAUUUUCGGCGGAUGCCUCCAAA

What was measured:
Details in all cases: with glucosamine-6-phosphate
[1] = variants of: B1; test: self-cleavage kobs at 160 uM GlcN6P; higher = faster cleavage; RNA array
Outline: (§1)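 A hybridised Cy3 probe tracked barcoded ribozyme variants, transcribed in situ by E. coli RNA polymerase on sequenced MiSeq chips, at 37 °C. The variants received 40 μM to 10 mM glucosamine-6-phosphate in HEPES/KCl/Mg(OAc)2 buffer. kobs came from decay fits and kcat and KM from weighted Michaelis–Menten fits.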

[2] = variants of: B1; test: self-cleavage kobs at 2500 uM GlcN6P; higher = faster cleavage; RNA array
Outline: as §1

[3] = variants of: B1; test: self-cleavage kobs at 640 uM GlcN6P; higher = faster cleavage; RNA array
Outline: as §1

[4] = variants of: B1; test: self-cleavage kobs at 10000 uM GlcN6P; higher = faster cleavage; RNA array
Outline: as §1

Variant | self-cleavage kobs at 160 uM GlcN6P [1] | self-cleavage kobs at 2500 uM GlcN6P [2] | self-cleavage kobs at 640 uM GlcN6P [3] | self-cleavage kobs at 10000 uM GlcN6P [4]
G13U G35C G51C U54A C70U | < 1e-05 s⁻¹ | < 1e-05 s⁻¹ |  | 
C8G C11G G43A | < 1e-05 s⁻¹ | < 1e-05 s⁻¹ | < 1e-05 s⁻¹ | 
C8A G13A G37U C67U C68U | 8.8e-05 ± 3.5e-05 s⁻¹ |  | 0.000297 ± 8.5e-05 s⁻¹ | 
G35C A42U G43A A52U | < 1e-05 s⁻¹ | < 1e-05 s⁻¹ | < 1e-05 s⁻¹ | 
C10A G38A G41U G44A G59U | < 1e-05 s⁻¹ | < 1e-05 s⁻¹ | < 1e-05 s⁻¹ | 
C10A A42U | < 1e-05 s⁻¹ | < 1e-05 s⁻¹ | < 1e-05 s⁻¹ | 
A33G A53C G59A | < 1e-05 s⁻¹ | < 1e-05 s⁻¹ |  | < 1e-05 s⁻¹
U30G G63A | < 1e-05 s⁻¹ | < 1e-05 s⁻¹ | < 1e-05 s⁻¹ | < 1e-05 s⁻¹
G41U G59A | < 1e-05 s⁻¹ | < 1e-05 s⁻¹ | < 1e-05 s⁻¹ | 
C58U C68G | 4.79e-05 ± 1.6e-05 s⁻¹ | 8.11e-05 ± 2e-05 s⁻¹ | 0.000137 ± 2.7e-05 s⁻¹ | 
G13U A42C U54A U55G | < 1e-05 s⁻¹ | < 1e-05 s⁻¹ | < 1e-05 s⁻¹ | 
A36C G37A U46A G66U | < 1e-05 s⁻¹ | < 1e-05 s⁻¹ | < 1e-05 s⁻¹ | 
C10G U65C | < 1e-05 s⁻¹ | < 1e-05 s⁻¹ | < 1e-05 s⁻¹ | < 1e-05 s⁻¹
A12U C34A | < 1e-05 s⁻¹ |  | < 1e-05 s⁻¹ | 
G60A C68G | 8.43e-05 ± 3.9e-05 s⁻¹ | 6.95e-05 ± 2.5e-05 s⁻¹ | 7.21e-05 ± 1.6e-05 s⁻¹ | 
C16U C50U U69G | 7.48e-05 ± 1.8e-05 s⁻¹ | 7.21e-05 ± 1.6e-05 s⁻¹ | 7.53e-05 ± 1.8e-05 s⁻¹ | 
A36G A48G | < 1e-05 s⁻¹ | < 1e-05 s⁻¹ | < 1e-05 s⁻¹ | < 1e-05 s⁻¹
C10U A12G U31A A36C C58A | < 1e-05 s⁻¹ |  |  | 
G32U G41U G60A | < 1e-05 s⁻¹ | < 1e-05 s⁻¹ |  | 
A33G U47G A48C G51C | < 1e-05 s⁻¹ |  |  | 
G7A G43C | < 1e-05 s⁻¹ | < 1e-05 s⁻¹ | < 1e-05 s⁻¹ | < 1e-05 s⁻¹
C10U A33G G51A A64C | < 1e-05 s⁻¹ |  |  | 
C8U G32U C50G | 0.000945 ± 0.00017 s⁻¹ | 0.000269 ± 8.5e-05 s⁻¹ | 0.000695 ± 0.00016 s⁻¹ | 
